# Results: publication PMC7705225, “Hfq-Assisted RsmA Regulation Is Central to Pseudomonas aeruginosa Biofilm Polysaccharide PEL Expression”
# Molecular target: RsmA (Pseudomonas aeruginosa PAO1, UniProt O69078 1-61)
# Assay: EMSA; without Hfq
# Settings: protein: recombinant; tags: His6 (C-terminal, RsmA-His6); chain copies: 2; label: none (SYBR Gold stain)
# RsmA, sequence (O69078 whole entry): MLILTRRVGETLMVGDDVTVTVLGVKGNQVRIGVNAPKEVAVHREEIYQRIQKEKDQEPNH
binder,measurement,value
truncated vfr RNA (structured_RNA) RNA: CUUUCGGGACUCGGGCAUGGUAGCUAUUACCCACACACCCAAACUCAAACACCUAGACAAGCUGCUCGCACACUGUCACCGCCGCCGCUACACCGCAAAGAGCACCAUCAUCUAUGCCGGCGAUCGCUGCGAU,binding result,binds
